Test results: article PMC7196632, “NAD^+ biosynthesis in bacteria is controlled by global carbon/nitrogen levels via PII signaling” (The Journal of Biological Chemistry, 2020)
One block for each molecule: values may come before it.

What was measured:
[1] = target: Azospirillum brasilense type 2 glutamine-dependent NAD synthetase AbNadE2, native (untagged), purified (Azospirillum brasilense)
[2] = target: T1, GlnZ (with AbNadE2; 2-OG site on GlnZ) (Azospirillum brasilense, UniProt P70731); test: loss of GlnZ relief of NAD+ inhibition of AbNadE2 (PPi release); assay type: biochemical
T1 construct: GlnZ homotrimer, non-uridylylated (native in activity assay; N-terminal His-tag kept in BLI), recombinant from E. coli; with Glutamine-dependent NAD(+) synthetase
T1 sequence (P70731 1-112, one chain of several): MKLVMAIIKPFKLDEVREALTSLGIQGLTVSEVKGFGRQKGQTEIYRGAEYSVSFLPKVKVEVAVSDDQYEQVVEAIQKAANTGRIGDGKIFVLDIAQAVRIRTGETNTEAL

[3] = target: T1, GlnZ (with AbNadE2; 2-OG site on GlnZ); test: biolayer interferometry, inhibition of GlnZ-AbNadE2 association; assay type: binding
Protocol: biolayer interferometry, inhibition of GlnZ-AbNadE2 association on GlnZ (with AbNadE2; 2-OG site on GlnZ) | The binding curves and Ki were determined using the manufactureŕs software

HsNadE2 (HsNadE2^Gln) = target: T2, HsNadE2 (HsNadE2^Gln) (Herbaspirillum seropedicae, UniProt D8IX05); test: discontinuous assay of PPi release (EnzChek pyrophosphate kit); assay type: biochemical; conditions: no PII (2 uM BSA); 100 nM enzyme, 4 mM ATP, 2 mM NaAD, 4 mM L-glutamine, 10 mM MgCl2, pH 8, 30 C
T2 construct: gene nadE; full-length, His-tag removed by thrombin, recombinant from E. coli; dimer
T2 sequence (D8IX05 1-565): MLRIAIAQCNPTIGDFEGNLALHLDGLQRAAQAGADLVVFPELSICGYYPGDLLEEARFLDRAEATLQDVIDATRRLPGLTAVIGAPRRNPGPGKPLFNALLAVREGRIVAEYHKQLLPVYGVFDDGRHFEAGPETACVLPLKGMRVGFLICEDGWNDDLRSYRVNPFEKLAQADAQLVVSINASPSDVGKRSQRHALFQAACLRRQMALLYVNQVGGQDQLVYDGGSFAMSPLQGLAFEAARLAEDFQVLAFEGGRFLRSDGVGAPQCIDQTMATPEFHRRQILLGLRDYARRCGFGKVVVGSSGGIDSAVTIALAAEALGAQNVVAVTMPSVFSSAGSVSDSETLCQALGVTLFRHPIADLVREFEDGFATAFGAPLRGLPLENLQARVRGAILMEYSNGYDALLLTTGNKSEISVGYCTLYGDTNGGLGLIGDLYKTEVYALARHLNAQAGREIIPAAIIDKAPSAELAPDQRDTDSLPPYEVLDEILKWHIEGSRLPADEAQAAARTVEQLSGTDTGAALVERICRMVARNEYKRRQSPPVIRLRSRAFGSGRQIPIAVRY

ScNadE2 (ScNadE^Gln) = target: T3, ScNadE2 (ScNadE^Gln) (Synechocystis sp. PCC 6803, UniProt P74292); test: as above; assay type: biochemical; conditions: no PII (2 uM BSA); 100 nM enzyme, 4 mM ATP, 2 mM NaAD, 4 mM L-glutamine, 10 mM MgCl2, pH 8, 30 C
T3 construct: gene nadE; full-length, N-terminal His-tag removed with TEV protease, recombinant from E. coli (pTEV5-based pASnadESc); dimer
T3 sequence (P74292 1-558): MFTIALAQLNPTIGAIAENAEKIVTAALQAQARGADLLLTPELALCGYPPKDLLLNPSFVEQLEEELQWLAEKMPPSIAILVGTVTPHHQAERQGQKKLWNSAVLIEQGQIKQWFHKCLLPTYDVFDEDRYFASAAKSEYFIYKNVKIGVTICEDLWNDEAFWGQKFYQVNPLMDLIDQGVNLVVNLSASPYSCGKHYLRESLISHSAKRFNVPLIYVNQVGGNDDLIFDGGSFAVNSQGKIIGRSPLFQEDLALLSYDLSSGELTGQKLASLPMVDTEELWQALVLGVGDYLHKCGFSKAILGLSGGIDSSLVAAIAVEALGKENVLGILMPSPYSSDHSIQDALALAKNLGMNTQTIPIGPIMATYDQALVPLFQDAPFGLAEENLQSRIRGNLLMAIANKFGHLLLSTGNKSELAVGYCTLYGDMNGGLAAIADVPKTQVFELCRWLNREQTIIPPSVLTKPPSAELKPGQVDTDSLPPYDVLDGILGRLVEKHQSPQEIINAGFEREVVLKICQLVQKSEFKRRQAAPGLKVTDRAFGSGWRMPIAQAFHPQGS

AbNadE2 (AbNadE2^Gln) = target: T4, AbNadE2 (AbNadE2^Gln) (Azospirillum baldaniorum, UniProt A0A9P1JPD2); test: as above; assay type: biochemical; conditions: read-out: IC50 (also called Ki)
T4 construct: gene nadE; full-length, untagged ('native AbNadE2'), recombinant from E. coli, purified as described previously; homodimer
T4 sequence (A0A9P1JPD2 1-554): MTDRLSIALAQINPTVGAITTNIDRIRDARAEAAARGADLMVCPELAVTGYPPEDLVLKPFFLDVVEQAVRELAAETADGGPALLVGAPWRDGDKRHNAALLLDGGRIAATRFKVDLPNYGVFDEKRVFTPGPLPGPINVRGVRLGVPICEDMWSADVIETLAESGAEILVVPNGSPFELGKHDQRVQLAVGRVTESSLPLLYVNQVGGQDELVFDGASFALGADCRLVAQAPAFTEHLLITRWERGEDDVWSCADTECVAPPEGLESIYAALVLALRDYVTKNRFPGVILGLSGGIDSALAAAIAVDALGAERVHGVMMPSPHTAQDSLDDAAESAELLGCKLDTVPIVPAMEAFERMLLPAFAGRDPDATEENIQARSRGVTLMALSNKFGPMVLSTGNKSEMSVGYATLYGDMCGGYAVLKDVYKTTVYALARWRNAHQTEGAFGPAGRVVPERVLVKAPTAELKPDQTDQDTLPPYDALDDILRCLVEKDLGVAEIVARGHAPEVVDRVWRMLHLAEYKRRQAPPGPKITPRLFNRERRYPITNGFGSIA

[4] = target: T5, GlnZ-AbNadE2 complex (NAD+ site on AbNadE2) (Azospirillum baldaniorum, UniProt A0A9P1JPD2); test: as above; assay type: biochemical
T5 construct: gene nadE; with Nitrogen regulatory protein P-II 2
T5 sequence (P70731 1-112 partner, one chain of several): as the sequence (P70731 1-112, one chain of several) above

[5] = target: N-terminal His-tagged GlnZ protein of Azospirillum brasilense (Azospirillum brasilense) (UniProt P70731); test: BLI; Octet K2; His-GlnZ immobilised on Ni-NTA sensor tip, AbNadE2 as analyte, with ADP (methods: 50 mM Tris-HCl pH 7, 50 mM KCl, 10 mM MgCl2, 2 mM ADP, 2.5 mM NAD+, 1 mg/ml BSA)
Sequence of N-terminal His-tagged GlnZ protein of Azospirillum brasilense (Azospirillum brasilense) (P70731 entry or part of it): as the sequence (P70731 1-112, one chain of several) above

[6] = target: N-terminal His-tagged GlnZ protein of Azospirillum brasilense (Azospirillum brasilense) (UniProt P70731); test: BLI; Octet K2; His-GlnZ (2 ug/ml) immobilised on Ni-NTA sensor tip, AbNadE2 30-2000 nM (dimer) as analyte, with ATP (legend: 5 mM MgCl2, 1 mM ATP; methods: 50 mM Tris-HCl pH 7, 50 mM KCl, 10 mM MgCl2, 2 mM ATP, 2.5 mM NAD+, 1 mg/ml BSA)
purified protein = substrate: NC(=O)CC[C@H](N)C(=O)O; test: purified protein; conditions: without NAD+, pH 8, 30 C
[7] = substrate: Nc1ncnc2c1ncn2[C@@H]1O[C@H](COP(=O)(O)OP(=O)([O-])OC[C@H]2O[C@@H]([n+]3cccc(C(=O)O)c3)[C@H](O)[C@@H]2O)[C@@H](O)[C@H]1O; test: NAD synthetase activity, Michaelis-Menten fit; assay type: biochemical, Azospirillum baldaniorum; conditions: without NAD+, pH 8, 30 C

Sequence of Azospirillum brasilense type 2 glutamine-dependent NAD synthetase AbNadE2, native (untagged), purified (Azospirillum brasilense) (A0A0P0EJG6 entry or part of it): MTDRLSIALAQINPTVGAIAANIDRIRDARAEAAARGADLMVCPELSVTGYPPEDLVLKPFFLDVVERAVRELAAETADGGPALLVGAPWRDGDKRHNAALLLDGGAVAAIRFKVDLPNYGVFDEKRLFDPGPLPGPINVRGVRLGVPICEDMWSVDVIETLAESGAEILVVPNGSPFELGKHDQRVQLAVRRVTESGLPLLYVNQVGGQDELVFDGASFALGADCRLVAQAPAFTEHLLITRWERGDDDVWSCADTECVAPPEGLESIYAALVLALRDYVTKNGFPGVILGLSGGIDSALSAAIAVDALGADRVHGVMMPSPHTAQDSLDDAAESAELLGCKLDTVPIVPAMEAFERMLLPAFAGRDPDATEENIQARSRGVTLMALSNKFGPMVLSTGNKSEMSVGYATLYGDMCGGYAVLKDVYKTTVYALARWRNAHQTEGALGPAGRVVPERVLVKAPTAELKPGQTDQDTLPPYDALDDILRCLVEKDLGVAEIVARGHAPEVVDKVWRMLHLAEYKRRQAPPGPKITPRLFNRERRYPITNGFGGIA

Molecule: O=C(O)CCC(=O)C(=O)O [2-oxoglutarate]
- IC50 [2]: 15.5 µM
- Ki [3]: 52.1 µM

B1: AbNadE2 (AbNadE2^Gln) (Azospirillum baldaniorum) (protein)
chain: MTDRLSIALAQINPTVGAITTNIDRIRDARAEAAARGADLMVCPELAVTGYPPEDLVLKPFFLDVVEQAVRELAAETADGGPALLVGAPWRDGDKRHNAALLLDGGRIAATRFKVDLPNYGVFDEKRVFTPGPLPGPINVRGVRLGVPICEDMWSADVIETLAESGAEILVVPNGSPFELGKHDQRVQLAVGRVTESSLPLLYVNQVGGQDELVFDGASFALGADCRLVAQAPAFTEHLLITRWERGEDDVWSCADTECVAPPEGLESIYAALVLALRDYVTKNRFPGVILGLSGGIDSALAAAIAVDALGAERVHGVMMPSPHTAQDSLDDAAESAELLGCKLDTVPIVPAMEAFERMLLPAFAGRDPDATEENIQARSRGVTLMALSNKFGPMVLSTGNKSEMSVGYATLYGDMCGGYAVLKDVYKTTVYALARWRNAHQTEGAFGPAGRVVPERVLVKAPTAELKPDQTDQDTLPPYDALDDILRCLVEKDLGVAEIVARGHAPEVVDRVWRMLHLAEYKRRQAPPGPKITPRLFNRERRYPITNGFGSIA
notes: full-length, untagged ('native AbNadE2'), recombinant from E. coli, purified as described previously; homodimer
- Km (purified protein): 720 µM
- Km [7]: 80 µM

Continued, in another order:

- activation of AbNadE2 NAD synthetase activity (PPi formation) at 2.5 mM NAD+, 100 nM AbNadE2, GlnZ 0.25-10 uM (trimer); Kact [1]: 640 nM
Molecule: N-terminal His-tagged GlnZ protein of Azospirillum brasilense (from UniProt P70731 1-112) (natural protein)

- IC50 (AbNadE2 (AbNadE2^Gln)): 1000 µM
- IC50 [4]: 2500 µM
Molecule: NC(=O)c1ccc[n+]([C@@H]2O[C@H](COP(=O)([O-])OP(=O)(O)OC[C@H]3O[C@@H](n4cnc5c(N)ncnc54)[C@H](O)[C@@H]3O)[C@@H](O)[C@H]2O)c1 [NAD^+]
- relative activity vs NAD+ concentration (HsNadE2 (HsNadE2^Gln)): In both cases, NadE2^Gln was inhibited by NAD^+ in a dose-dependent manner
- relative activity vs NAD+ concentration (ScNadE2 (ScNadE^Gln)): In both cases, NadE2^Gln was inhibited by NAD^+ in a dose-dependent manner

- Kd [5]: 0.15 µM
- Kd [6]: 0.3 µM
- koff [6]: 0.0272 s⁻¹
- kon [6]: 90900 M⁻¹ s⁻¹
Molecule: Azospirillum brasilense type 2 glutamine-dependent NAD synthetase AbNadE2, native (untagged), purified (enzyme)
